The target of assay [1] is T1, human FcRn (human, UniProt P55899 24-297; P61769 21-119).
T1 construct: beta-2-microglobulin is not mentioned; also called hFcRn; recombinantly expressed hFcRn
Put plainly: Biacore (SPR): hFcRn amine-coupled on a CM5 chip, antibody as mobile phase, pH 6.0, 1:1 Langmuir fit. A general note: Surface plasmon resonance follows binding to a sensor surface in real time, without labels.
Procedure: (§1) The affinity was then calculated by fitting the data using a 1:1 Langmuir binding model.

The target of assay [2] is T2, hFcγRIIa (R131) (human, UniProt P12318 34-217).
T2 construct: also called hFcγR2a R131
T2 sequence: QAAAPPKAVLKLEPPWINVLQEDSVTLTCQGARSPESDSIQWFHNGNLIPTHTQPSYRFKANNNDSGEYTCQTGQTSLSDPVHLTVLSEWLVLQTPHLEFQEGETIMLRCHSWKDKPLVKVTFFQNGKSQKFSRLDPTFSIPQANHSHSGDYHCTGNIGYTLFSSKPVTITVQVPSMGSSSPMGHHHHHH
Briefly: Biacore; antibody captured on Protein G CM5 chip, hFcγR in mobile phase, pH 7.0, 1:1 Langmuir fit.
Procedure: (§2) Different concentrations of recombinant hFcγR were used as the mobile phase over the flow path to allow binding and dissociation with the antibodies on the chip at pH 7.0. The affinity was then calculated by fitting the data using a 1:1 Langmuir binding model.

Assay [3] concerns the target T3, hFcγRIa (human, UniProt P12314 16-288, limits assumed).
T3 construct: Recombinant, Ni column purified; also called hFcγR1a; human FcγRI
Described as above.
Procedure: as §2

For assay [4], the target named is T4, hFcγRIIIa (V158) (human, UniProt P08637 17-208).
T4 construct: V at position 158; also called hFcγR3a V158
The description is as above.
Procedure: as §2

The target of assay [5] is T5, hFcγRIIa (H131) (human, UniProt P12318 34-217).
T5 construct: also called hFcγR2a H131
T5 sequence: T2 sequence with R134H
The assay is described as above.
Procedure: as §2

Assay [6] concerns the target T6, hFcγRIIIa (F158) (human, UniProt P08637 17-208).
T6 construct: F at position 158; also called hFcγR3a F158
The assay is described as above.
Procedure: as §2

Assay [7] has as its target T7, hFcγRIIb (human, UniProt P31994 43-217).
T7 construct: also called hFcγR2b
T7 sequence: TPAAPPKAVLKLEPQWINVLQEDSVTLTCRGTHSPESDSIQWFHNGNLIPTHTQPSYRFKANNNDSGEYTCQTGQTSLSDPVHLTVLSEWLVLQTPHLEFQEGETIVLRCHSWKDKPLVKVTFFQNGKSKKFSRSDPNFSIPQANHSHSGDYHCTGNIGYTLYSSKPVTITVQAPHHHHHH
The assay is described as above.
Procedure: as §2

Assay [8] concerns the target T1, human FcRn. Briefly: Biacore; hFcRn amine-coupled on CM5 chip, antibody in mobile phase, pH 6.0, 1:1 Langmuir fit.
Procedure: as §1
Assay [9] has as its target T2, hFcγRIIa (R131). Put plainly: Biacore; ratio against A14 WT.
Procedure: as §2
Assay [10] concerns the target T3, hFcγRIa. Briefly: Biacore; ratio against A14 WT.
Procedure: as §2
For assay [11], the target named is T4, hFcγRIIIa (V158). Briefly: Biacore; ratio against A14 WT.
Procedure: as §2
Assay [12] addresses T5, hFcγRIIa (H131). Put plainly: Biacore; ratio against A14 WT.
Procedure: as §2
In assay [13] the target is T6, hFcγRIIIa (F158). Briefly: Biacore; ratio against A14 WT.
Procedure: as §2
Assay [14] has as its target T7, hFcγRIIb. Put plainly: Biacore; ratio against A14 WT.
Procedure: as §2
Assay [15] addresses T8, FcγRIIa R131 on Jurkat/NFAT-luc2p/FcγRIIa R131 cells (UniProt P12318 34-317).
T8 sequence (looked up): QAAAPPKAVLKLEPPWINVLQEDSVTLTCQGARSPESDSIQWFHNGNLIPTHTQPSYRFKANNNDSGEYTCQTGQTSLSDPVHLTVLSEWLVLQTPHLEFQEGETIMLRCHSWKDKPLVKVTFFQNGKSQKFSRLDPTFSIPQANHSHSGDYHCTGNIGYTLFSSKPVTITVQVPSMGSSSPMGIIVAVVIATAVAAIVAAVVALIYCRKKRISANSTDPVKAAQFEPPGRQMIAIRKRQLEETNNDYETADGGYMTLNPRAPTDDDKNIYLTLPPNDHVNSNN
Put plainly: cell-based or functional assay.

Assay [16] addresses Pre-S1 domain of the L protein on recombinant HBV D genotype virus (hepatitis B virus, D genotype). Put plainly: cell-based or functional assay.
The target in assay [17] is FcγRIIIa F158 on Jurkat/NFAT-luc2p/FcγRIIIa F158 cells (UniProt P08637 17-254, limits assumed). Put plainly: cell-based or functional assay.
The target in assay [18] is T9, antigen peptide NC36b (pre-S1).
T9 construct: Synthesised by Beijing Zhongke Yaguang Biotechnology; also called target antigen Pre-S1
Put plainly: ELISA on the antigen peptide NC36b (Pre-S1), panel title 'Binding to PreS1'.

Numbering of substitutions follows the chain as printed.

T1 sequence (P55899 24-297 limits assumed, chain 1 of 2): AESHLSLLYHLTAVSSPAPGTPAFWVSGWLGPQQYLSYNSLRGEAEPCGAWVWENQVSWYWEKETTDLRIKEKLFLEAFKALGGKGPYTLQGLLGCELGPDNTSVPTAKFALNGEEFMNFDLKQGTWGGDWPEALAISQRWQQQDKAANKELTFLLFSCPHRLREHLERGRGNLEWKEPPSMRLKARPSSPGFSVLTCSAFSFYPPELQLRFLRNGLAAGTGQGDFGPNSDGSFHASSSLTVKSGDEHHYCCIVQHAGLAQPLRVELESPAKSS
T1 sequence (P61769 21-119 limits assumed, chain 2 of 2): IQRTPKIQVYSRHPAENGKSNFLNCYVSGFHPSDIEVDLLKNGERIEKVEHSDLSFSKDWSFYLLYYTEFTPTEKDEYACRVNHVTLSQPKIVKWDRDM
T4 sequence (P08637 other isoform, or with tags, fused parts or gaps): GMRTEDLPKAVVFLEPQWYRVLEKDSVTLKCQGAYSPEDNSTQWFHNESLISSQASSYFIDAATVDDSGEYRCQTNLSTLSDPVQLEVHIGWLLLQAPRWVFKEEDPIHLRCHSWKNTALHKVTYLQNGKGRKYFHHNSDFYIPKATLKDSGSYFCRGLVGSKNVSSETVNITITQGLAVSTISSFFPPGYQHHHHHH
T6 sequence (P08637 other isoform, or with tags, fused parts or gaps): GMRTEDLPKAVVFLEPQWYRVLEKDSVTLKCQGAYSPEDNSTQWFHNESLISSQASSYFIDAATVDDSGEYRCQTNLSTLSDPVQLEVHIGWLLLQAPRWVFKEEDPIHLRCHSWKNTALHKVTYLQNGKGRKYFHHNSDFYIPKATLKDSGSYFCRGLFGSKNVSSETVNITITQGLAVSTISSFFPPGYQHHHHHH
T3 sequence (P12314 other isoform, or with tags, fused parts or gaps limits assumed): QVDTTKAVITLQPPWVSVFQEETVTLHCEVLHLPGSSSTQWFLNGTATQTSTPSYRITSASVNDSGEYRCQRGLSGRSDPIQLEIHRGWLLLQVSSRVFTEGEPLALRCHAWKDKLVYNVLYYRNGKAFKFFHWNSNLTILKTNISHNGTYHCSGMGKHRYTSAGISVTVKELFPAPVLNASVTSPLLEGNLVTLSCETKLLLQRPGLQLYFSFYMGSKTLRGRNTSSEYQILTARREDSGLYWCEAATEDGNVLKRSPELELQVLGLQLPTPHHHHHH

B1: afuco-A14 GA LS (antibody, human IgG1, lambda)
heavy: QVQLQQSGPGLVKPSQTLSLTCAISGDSVSSNSAAWNWIRQSPSRGLEWLGRTYYRSKWYNDYAVSVKSRITINPDTSKNQFSLQLNSVTPEDTAVYYCARGTRWGMDVWGQGTLVTVSSASTKGPSVFPLAPSSKSTSGGTAALGCLVKDYFPEPVTVSWNSGALTSGVHTFPAVLQSSGLYSLSSVVTVPSSSLGTQTYICNVNHKPSNTKVDKKVEPKSCDKTHTCPPCPAPELLAGPSVFLFPPKPKDTLMISRTPEVTCVVVDVSHEDPEVKFNWYVDGVEVHNAKTKPREEQYNSTYRVVSVLTVLHQDWLNGKEYKCKVSNKALPAPIEKTISKAKGQPREPQVYTLPPSRDELTKNQVSLTCLVKGFYPSDIAVEWESNGQPENNYKTTPPVLDSDGSFFLYSKLTVDKSRWQQGNVFSCSVLHEALHSHYTQKSLSLSPGK
light: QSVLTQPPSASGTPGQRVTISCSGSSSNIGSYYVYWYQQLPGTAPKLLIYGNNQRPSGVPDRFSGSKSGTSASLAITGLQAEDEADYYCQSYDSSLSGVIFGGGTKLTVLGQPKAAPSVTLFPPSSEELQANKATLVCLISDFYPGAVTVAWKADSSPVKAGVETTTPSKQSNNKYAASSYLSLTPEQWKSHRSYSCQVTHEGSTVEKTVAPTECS
modifications: Afucosylated modification (expressed in Fut8-knockout FCC# cells)
notes: IgG1
Take B1: the Kd with human FcRn [1] stood at 6.46 nM; in the assay with hFcγRIIa (R131) [2] it was 204 nM; with hFcγRIa [3] it was 173 nM; with hFcγRIIIa (V158) [4], 123 nM; with hFcγRIIa (H131) [5], 169 nM; with hFcγRIIIa (F158) [6] it was 588 nM. The Kd in the assay with hFcγRIIb [7] was 7470 nM. For the same molecule, in the assay with human FcRn [8], the “fold change in KD against A14 WT” value was 3.4 fold. Besides, the “Fold (KD of A14 WT over KD of afuco-A14 GA LS)” value in the assay with hFcγRIIa (R131) [9] amounted to 3.83 fold; in the assay with hFcγRIa [10], 0.41 fold; with hFcγRIIIa (V158) [11] it was 7.89 fold; in the assay with hFcγRIIa (H131) [12], 4.63 fold; with hFcγRIIIa (F158) [13], 11 fold; with hFcγRIIb [14] it was 0.76 fold. In assay [15], the “ADCP activity, fold enhancement compared to A14 (Jurkat/NFAT-luc2p/FcγRIIa R131 reporter)” value is ≥ 4.7 fold. In addition, the “IC50 of inhibition of HBV infection of HepG2-hNTCP cells (HBeAg secretion)” value in assay [16] was ~0.011 µg/mL. In assay [17], the “ADCC activity, fold enhancement compared to A14 (Jurkat/NFAT-luc2p/FcγRIIIa F158 reporter)” value was found to be 18.6 fold. Also, the “EC50 (read off the curve)” value in assay [18] was ~0.02 µg/mL.

For orientation: Kd means the free concentration of one partner at which half of the binding sites on the other are occupied at equilibrium, for simple one-to-one binding. High values mean a looser complex, low ones a tighter complex. In general, EC50 (read off the curve) refers to the concentration that produces a half-maximal response. Read a low EC50 (read off the curve) as an effect from little substance.

These data come from patent US20260250361A1 (HUAHUI HEALTH, published 2026).
